# Results reported in patent publication US20230176057A1 (CHAN ZUCKERBERG BIOHUB, published 2023).
# B1: N-binding clone H2 Fab (Fab, V domains shown)
# VH: EVQLVESGGGLVQPGGSLRLSCAASGFNVYSSSIHWVRQAPGKGLEWVASISSYYSYTSYADSVKGRFTISADTSKNTAYLQMNSLRAEDTAVYYCARSYNFSWSGYYGFDYWGQGTLVTVSS
# VL: DIQMTQSPSSLSASVGDRVTITCRASQSVSSAVAWYQQKPGKAPKLLIYSASSLYSGVPSRFSGSRSGTDFTLTISSLQPEDFATYYCQQFIQFPITFGQGTKVEIKR
# Target: SARS-CoV-2 nucleocapsid protein (N protein) (SARS-CoV-2, UniProt P0DTC9 1-419)
binder,measurement,value
B1,Kd,20 nM
